Tests used:
[1] = target: T1, placental growth factor (PLGF) (UniProt P49763-2 21-149, limits assumed); test: ligand-receptor binding competition assay, PlGF binding to VEGFR1; N-terminal VD
T1 construct: also called P1GF
T1 sequence (looked up): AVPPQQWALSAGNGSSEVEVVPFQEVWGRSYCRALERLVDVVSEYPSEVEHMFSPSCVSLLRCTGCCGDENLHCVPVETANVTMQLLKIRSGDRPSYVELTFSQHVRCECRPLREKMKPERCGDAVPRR

[2] = target: recombinant human VEGF165 (human, UniProt P15692-4 27-191); test: cell-based or functional assay
[3] = target: recombinant human HGF (human, UniProt P14210 32-728); test: cell-based or functional assay
recombinant human HGF, sequence (P14210 32-728 limits assumed): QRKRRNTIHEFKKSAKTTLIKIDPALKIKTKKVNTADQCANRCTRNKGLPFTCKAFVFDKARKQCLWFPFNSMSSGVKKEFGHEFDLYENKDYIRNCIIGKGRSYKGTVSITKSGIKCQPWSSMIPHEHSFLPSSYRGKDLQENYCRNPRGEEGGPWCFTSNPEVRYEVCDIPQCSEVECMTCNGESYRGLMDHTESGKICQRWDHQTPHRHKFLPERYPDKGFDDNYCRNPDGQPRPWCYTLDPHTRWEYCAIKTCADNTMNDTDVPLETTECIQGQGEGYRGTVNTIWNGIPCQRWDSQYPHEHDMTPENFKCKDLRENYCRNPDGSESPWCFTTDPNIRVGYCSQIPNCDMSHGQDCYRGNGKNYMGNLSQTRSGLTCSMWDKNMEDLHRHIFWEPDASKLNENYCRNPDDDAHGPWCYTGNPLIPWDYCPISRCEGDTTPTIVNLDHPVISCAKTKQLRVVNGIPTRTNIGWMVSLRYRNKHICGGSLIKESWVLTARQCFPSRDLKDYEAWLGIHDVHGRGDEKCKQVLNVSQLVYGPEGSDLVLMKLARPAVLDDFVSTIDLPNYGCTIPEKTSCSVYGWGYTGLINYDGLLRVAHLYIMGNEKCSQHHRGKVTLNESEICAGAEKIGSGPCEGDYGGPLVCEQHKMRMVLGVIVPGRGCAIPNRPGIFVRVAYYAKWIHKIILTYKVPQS

recombinant human VEGF165, sequence (P15692 other isoform, or with tags, fused parts or gaps limits assumed): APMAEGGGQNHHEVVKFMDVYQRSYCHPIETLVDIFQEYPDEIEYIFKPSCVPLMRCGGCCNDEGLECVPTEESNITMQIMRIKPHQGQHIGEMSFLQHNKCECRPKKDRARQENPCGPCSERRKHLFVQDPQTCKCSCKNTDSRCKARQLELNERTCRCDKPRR

B1: DVD583 (bispecific antibody, human IgG1, kappa)
heavy: not shown
light: DIVLTQSPDSLAVSLGERVTMNCKSSQSLLNSGMRKSFLAWYQQKPGQSPKLLIYWASTRESGVPDRFTGSGSGTDFTLTISSVQAEDVAVYYCKQSYHLFTFGSGTKLEIKRTVAAPSVFIFPPDIQMTQSPSSLSASVGDRVTITCRASQVIRRSLAWYQQKPGKAPKLLIYAASNLASGVPSRFSGSGSGTDFTLTISSLQPEDFATYYCQQSNTSPLTFGQGTKVEIKRTVAAPSVFIFPPSDEQLKSGTASVVCLLNNFYPREAKVQWKVDNALQSGNSQESVTEQDSKDSTYSLSSTLTLSKADYEKHKVYACEVTHQGLSSPVTKSFNRGEC
notes: DVD-Ig, N-term PlGF (AB047) / C-term VEGF (AB071); also called DVD583H; DVD583L
**Q.** Which IC50 [1] does the source give for B1 here?
**A.** 3.25 nM

B2: DVD485 (bispecific antibody, human IgG1, kappa)
heavy: not shown
light: DIQMTQSPSSLSASVGDRVTITCRASQDVSTAVAWYQQKPGKAPKLLIYSASFLYSGVPSRFSGSGSGTDFTLTISSLQPEDFATTYYCQQSYTGTVTFGQGTKVEIKRTVAAPSVFIFPPDIQMTQSPSSLSASVGDRVTITCRASQVIRRSLAWYQQKPGKAPKLLIYAASNLASGVPSRFSGSGSGTDFTLTISSLQPEDFATYYCQQSNTSPLTFGQGTKVEIKRTVAAPSVFIFPPSDEQLKSGTASVVCLLNNFYPREAKVQWKVDNALQSGNSQESVTEQDSKDSTYSLSSTLTLSKADYEKHKVYACEVTHQGLSSPVTKSFNRGEC
**Q.** Which “inhibition of HUVEC proliferation (IC50)” value [2] does the source give for B2 here?
**A.** 59.5 nM

B3: DVD045 (bispecific antibody, human IgG1, kappa)
heavy: not shown
light: DIQMTQSPSSLSASVGDRVTITCSASQDISNYLNWYQQKPGKAPKVLIYFTSSLHSGVPSRFSGSGSGTDFTLTISSLQPEDFATYYCQQYSTVPWTFGQGTKVEIKRTVAAPDIQMTQSPSSVSASVGDRVTITCRASQGISSWLAWYQQKPGKAPNLLIYEASSLQSGVPSRFGGSGSGTDFTLTISSLQPEDFATYYCQQANGFPWTFGQGTKVEIKRTVAAPSVFIFPPSDEQLKSGTASVVCLLNNFYPREAKVQWKVDNALQSGNSQESVTEQDSKDSTYSLSSTLTLSKADYEKHKVYACEVTHQGLSSPVTKSFNRGEC
**Q.** Which results are given for B3?
**A.** Inhibition Of Akt Phosphorylation (% Inhibition At 0.67 nM Ab/DVD) [3]: -15%; Inhibition Of Akt Phosphorylation (% Inhibition At 6.7 nM Ab/DVD) [3]: -2%; Inhibition Of Akt Phosphorylation (% Inhibition At 67 nM Ab/DVD) [3]: 64%

B4: AB012 (antibody, human IgG1, kappa, V domains shown)
VH: QVQLVESGGGLVKPGGSLRLSCAASGFTFSDYYMSWIRQAPGKGLEWVSYISSSGSTIYYADSVKGRFTISRDNAKNSLYLQMNSLRAEDTAVYYCARDEYNSGWYVLFDYWGQGTLVTVSS
VL: DIQMTQSPSSVSASVGDRVTITCRASQGISSWLAWYQQKPGKAPNLLIYEASSLQSGVPSRFGGSGSGTDFTLTISSLQPEDFATYYCQQANGFPWTFGQGTKVEIKR
**Q.** Which “Inhibition Of Akt Phosphorylation (% Inhibition At 0.67 nM Ab/DVD)” value [3] does the source give for B4 here?
**A.** 79%

**Q.** What about the “Inhibition Of Akt Phosphorylation (% Inhibition At 6.7 nM Ab/DVD)” value [3] of the same binder?
**A.** 110%

**Q.** And the “Inhibition Of Akt Phosphorylation (% Inhibition At 67 nM Ab/DVD)” value [3]?
**A.** 106%

B5: DVD471 (bispecific antibody, human IgG1, kappa, L234A L235A)
heavy: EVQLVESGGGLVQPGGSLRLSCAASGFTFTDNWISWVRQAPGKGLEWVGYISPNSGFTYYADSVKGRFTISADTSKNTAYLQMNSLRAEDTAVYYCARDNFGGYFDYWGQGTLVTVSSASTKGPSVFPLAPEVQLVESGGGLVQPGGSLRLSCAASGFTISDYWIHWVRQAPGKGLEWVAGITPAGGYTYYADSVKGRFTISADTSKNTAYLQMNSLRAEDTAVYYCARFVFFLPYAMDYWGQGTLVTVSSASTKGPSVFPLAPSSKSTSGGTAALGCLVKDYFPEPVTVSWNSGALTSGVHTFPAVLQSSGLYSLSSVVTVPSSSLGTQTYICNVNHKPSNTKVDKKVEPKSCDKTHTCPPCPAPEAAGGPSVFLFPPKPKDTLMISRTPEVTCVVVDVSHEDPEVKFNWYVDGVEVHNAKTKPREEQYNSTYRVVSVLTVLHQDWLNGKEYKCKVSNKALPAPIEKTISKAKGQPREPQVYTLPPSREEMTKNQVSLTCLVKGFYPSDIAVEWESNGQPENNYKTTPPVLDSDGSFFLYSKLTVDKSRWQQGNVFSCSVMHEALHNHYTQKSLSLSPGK
light: DIQMTQSPSSLSASVGDRVTITCRASQDVSTAVAWYQQKPGKAPKLLIYSASFLYSGVPSRFSGSGSGTDFTLTISSLQPEDFATTYYCQQSYTGTVTFGQGTKVEIKRTVAAPSVFIFPPDIQMTQSPSSLSASVGDRVTITCRASQDVSTAVAWYQQKPGKAPKLLIYSASFLYSGVPSRFSGSGSGTDFTLTISSLQPEDFATYYCQQSYTTPPTFGQGTKVEIKRTVAAPSVFIFPPSDEQLKSGTASVVCLLNNFYPREAKVQWKVDNALQSGNSQESVTEQDSKDSTYSLSSTLTLSKADYEKHKVYACEVTHQGLSSPVTKSFNRGEC
**Q.** For B5, which “inhibition of HUVEC proliferation (IC50)” value [2] is on record?
**A.** 6.8 nM

B6: DVD573 (bispecific antibody, human IgG1, kappa)
heavy: not shown
light: DIVLTQSPDSLAVSLGERVTMNCKSSQSLLNSGMRKSFLAWYQQKPGQSPKLLIYWASTRESGVPDRFTGSGSGTDFTLTISSVQAEDVAVYYCKQSYHLFTFGSGTKLEIKRTVAAPDIQMTQSPSSLSASVGDRVTITCRASQDVSTAVAWYQQKPGKAPKLLIYSASFLYSGVPSRFSGSGSGTDFTLTISSLQPEDFATYYCQQSYTTPPTFGQGTKVEIKRTVAAPSVFIFPPSDEQLKSGTASVVCLLNNFYPREAKVQWKVDNALQSGNSQESVTEQDSKDSTYSLSSTLTLSKADYEKHKVYACEVTHQGLSSPVTKSFNRGEC
notes: also called DVD573H; DVD573L
**Q.** B6 was tested. Which IC50 [1] did it give?
**A.** 2.59 nM

B7: DVD589 (bispecific antibody, human IgG1, kappa)
heavy: not shown
light: B6 light
notes: also called DVD589VH; DVD589VL
**Q.** With B7 as the binder, how does the IC50 [1] read?
**A.** 2.87 nM

B8: DVD575 (bispecific antibody, human IgG1, kappa)
heavy: not shown
light: DIVLTQSPDSLAVSLGERVTMNCKSSQSLLNSGMRKSFLAWYQQKPGQSPKLLIYWASTRESGVPDRFTGSGSGTDFTLTISSVQAEDVAVYYCKQSYHLFTFGSGTKLEIKRTVAAPDIQMTQSPSSLSASVGDRVTITCRASQVIRRSLAWYQQKPGKAPKLLIYAASNLASGVPSRFSGSGSGTDFTLTISSLQPEDFATYYCQQSNTSPLTFGQGTKVEIKRTVAAPSVFIFPPSDEQLKSGTASVVCLLNNFYPREAKVQWKVDNALQSGNSQESVTEQDSKDSTYSLSSTLTLSKADYEKHKVYACEVTHQGLSSPVTKSFNRGEC
notes: DVD-Ig, N-term PlGF (AB047) / C-term VEGF (AB071); also called DVD575H; DVD575L
**Q.** With B8 as the binder, how does the IC50 [1] read?
**A.** 2.9 nM

B9: DVD591 (bispecific antibody, human IgG1, kappa)
heavy: not shown
light: B8 light
notes: DVD-Ig, N-term PlGF (AB047) / C-term VEGF (AB071); also called DVD591VH; DVD591VL
**Q.** For B9, which IC50 [1] is on record?
**A.** 3.23 nM

B10: AB008 (antibody, human IgG1, kappa, V domains shown)
VH: QVQLVQSGAEVKKPGSSVKVSCKASGYTFTSYWLHWVRQAPGQGLEWIGYINPRNDYTEYNQNFKDKATITADESTNTAYMELSSLRSEDTAFYFCARRDITTFYWGQGTTVTVSS
VL: DIQLTQSPSSLSASVGDRVTMSCKSSQSVLYSANHKNYLAWYQQKPGKAPKLLIYWASTRESGVPSRFSGSGSGTDFTFTISSLQPEDIATYYCHQYLSSWTFGGGTKLEIKR
**Q.** What does the source list for B10?
**A.** Inhibition Of Akt Phosphorylation (% Inhibition At 6.7 nM Ab/DVD) [3]: -13%; Inhibition Of Akt Phosphorylation (% Inhibition At 67 nM Ab/DVD) [3]: 8%

B11: DVD581 (bispecific antibody, human IgG1, kappa)
heavy: not shown
light: DIVLTQSPDSLAVSLGERVTMNCKSSQSLLNSGMRKSFLAWYQQKPGQSPKLLIYWASTRESGVPDRFTGSGSGTDFTLTISSVQAEDVAVYYCKQSYHLFTFGSGTKLEIKRTVAAPSVFIFPPDIQMTQSPSSLSASVGDRVTITCRASQDVSTAVAWYQQKPGKAPKLLIYSASFLYSGVPSRFSGSGSGTDFTLTISSLQPEDFATYYCQQSYTTPPTFGQGTKVEIKRTVAAPSVFIFPPSDEQLKSGTASVVCLLNNFYPREAKVQWKVDNALQSGNSQESVTEQDSKDSTYSLSSTLTLSKADYEKHKVYACEVTHQGLSSPVTKSFNRGEC
notes: also called DVD581H; DVD581L
**Q.** B11 was tested. Which IC50 [1] did it give?
**A.** 3.5 nM

Reference: patent US20100260668A1 (published 2010)
